Laboratory results as given in patent US20020155571A1, “Triazine degrading enzymes” (priority 2000, published 2002).

Assay: High throughput mass spectrometry screen of triazine hydrolase library against about 15 triazine derivatives
Assay type: biochemical
[1] = substrate(s) on which the triazine hydrolase library member shows activity, column indicates preferred embodiments and is not exclusive
[2] = Table 5, the value is the triazine substrate the library member (atzA-based variant) is active on, preferred members, not exclusive

Molecule	Substrate Activity [1]	Substrate Activity [2]	also measured
383 (protein) MQTLSIQHGTLVTMDQYRRVLGDSWVHVQDGRIVALGVHAESVPPPADRVIDARGKVVLPGFINAHTHVNQILLRGGPSHGRQLYDWLFNVLYPGQKAMRPEVAVAVRLYCAEAVRSGITTINEEADSAIYPGNIEAAMAVYGEVGVRVVYARMFFDRMDGRIQGYVDALKARSPQVELCSIMEETAVAKDRITALSDQYHGTAGGRISVWPAPATTTTVTVEGMRWAQAFARDRAVMWTLHMAESDHDERILGWSPAEYMECYGLLDERLQVAHCVYFDRKDVRLLHRHNVKVASQVVSNAYLGSGVAPVPEMVERGMAVGIGTDNNNSCDSVNMIGDMKFMAHIHRAVHRDADVLTPEKILEMATIDGARSLGMDHEIGSIETGKRADLILLDLRHPQTTPHHHLAATIVFQAYGNEVDTVLIDGNVVMENRRLSFLPPERELAFLEEAQSRATAILQRANMVANPAWRSL			Substrate Activity: ametryn (substrate ametryn, preferred substrates, not exclusive): ametryn
504 (protein) MQTLSIQHGTLVTMDQYRRVLGDSWVHVQDGRIVALGVHAESVPPPADRVIDARGKVVLPGFINAHTHVNQILLRGGPSHGRQLYDWLFNVVYPGQKAMRPEVAVAVRLYCAEAVRSGITTINEEADSAIYPGNIEAAMAVYGEVGVRVVYARMFFDRMDGRIQGYVDALKARSPQVELCSIMEETAVAKDRITALSDQYHGTAGGRISVWPAPATTTTVTVEGMRWAQAFARDRAVMWTLHMAESDHDERIIGWSPAEYMECYGLLDERLQVAHCVYFDRKDVRLLHRHNVKVASQVVSNAYLGSGVAPVPEMVERGMAVGIGTDNNNSSDSVNMIGDMKFMAHIHRAVHRDADVLTPEKILEMATIDGARSLGMDHEIGSIETGKRADLILLDLRHPQTTPHHHLAATIVFQAYGNEVDTVLIDGNVVMENRRLSFLPPERELAFLEEAQSRATAILQRANMVANPAWRSL	propazine		
482 (protein) MQTLSIQHGTLVTMDQYRRVLGDSWVHVQDGRIVALGVHAESVPPPADRVIDARGKVVLPGFINAHTHVNQILLRGGPSHGRQLYDWLFNVVYPGQKAMRPEVAVAVRLYCAEAVRSGITTINEEADSAIYPGNIEAAMAVYGEVGVRVVYARMFFDRMDGRIQGYVDALKARSPQVELCSIMEETAVAKDRITALSDQYHGTAGGRISVWPAPATTTPVTVEGMRWAQAFARDRAVMWTLHMAESDHDERIIGGSPAEYMECYGLLDERLQVAHCVYFDRKDVRLLHRHNVKVASQVVSNAYLGSGVAPVPEMVERGMAVGIGTDNDNSSDSVNMIGDMKFMAHIHRAVHRDADVLTPEKILEMATIDGARSLGMDHEIGSIETGKRADLILLDLRHPQTTPHHHLAATIVFQAYGNEVDTVLIDGNVVMENRRLSFLPPERELAFLEEAQSRATAILQRANMVANPAWRSL	prometryn		
512 (protein) MQTLSIQHGTLVTMDQYRRVLGDSWVHVQDGRIVALGVHAESVPPPADRVIDARGKVVLPGFINAHTHVNQILLRGGPSHGRQLYDWLFNVVYPGQKAMRPEVAVAVRLYCAEAVRSGITTINEEADSAIYPGNIEAAMAVYGEVGVRVVYARMFFDRMDGRIQGYVDALKARSPQVELCSIMEETAVAKDRITALSDQYHGTAGGRISVWPAPATTTTVTVEGMRWAQAFARDRAVMWTLHMAESDHDERILGWSPAEYMECYGLLDERLQVAHCVYFDRKDVRLLHRHNVKVASQVVSNAYLGSGVAPVPEMVERGMAVGIGTDNNNSSDSVNMIGDMKFMAHIHRAVHRDADVLTPEKILEMATIDGARSLGMDHEIGSIETGKRADLILLDLRHPQTTPHHHLAATIVFQAYGNEVDTVLIDGNVVMENRRLSFLPPERELAFLEEAQSRATAILQRANMVANPAWRSL	propazine		
61 (protein) MQTLSIQHGTLVTMDQYRRVLGDSWVHVQDGRIVALGVHAESVPPPADRVIDARGKVVLPGFINAHTHVNQILLRGGPSHGRQFYDWLFNVLYPGQKAMRPEVAVAVRLYCAEAVRSGITTINEDADSAIYPGNIEAAMAVYGEVGVRVVYARMFFDRMDGRIQGYVDALKARSPQVELCSIMEETAVAKDRITALSDQYHGTAGGRISVWPAPATTTTVTVEGMRWAQAFARDRAVMWTLHMAESDHDERILGWSPAEYMECYGLLDERLQVAHCVYFDRKDVRLLHRHNVKVASQVVSNAYLGSGVAPVPEMVERGMAVGIGTDNDNSCDSVNMIGDMKFMAHIHRAVHRDADVLTPEKILEMATIDGARSLGMDHEIGSIETGKRADLILLDLRHPQTTPHHHLAATIVFQAYGNEVDTVLIDGNVVMENRRLSFLPPERELAFLEEAQSRATAILQRANMVANPAWRSL		atratone	
502 (protein) MQTLSIQHGTLVTMDQYRRVLGDSWVHVQDGRIVALGVHAESVPPPADRVIDARGKVVLPGFINAHTHVNQILLRGGPSHGRQLYDWLFNVVYPGQKAMRPEVAVAVRLYCAEAVRSGITTINEEADSAIYPGNIEAAMAVYGEVGVRVVYARMFFDRMDGRIQGYVDALKARSPQVELCSIMEETAVAKDRITALSDQYHGTAGGRISVWPAPATTTTVTVEGMRWAQAFARDRAVMWTLHMAESDHDERIIGWSPAEYMECYGLLDERLQVAHCVYFDRKDVRLLHRHNVKVASQVVSNAYLGSGVAPVPEMVERGMAVGIGTDNDNSSDSVNMIGDMKFMAHIHRAVHRDADVLTPEKILEMATIDGARSLGMDHEIGSIETGKRADLILLDLRHPQTTPHHHLAATIVFQAYGNEVDTVLIDGNVVMENRRLSFLPPERELAFLEEAQSRATAILQRANMVANPAWRSL	prometryn		
466 (protein) MQTLSIQHGTLVTMDQYRRVLGDSWVHVQDGRIVALGVHAESVPPPADRVIDARGKVVLPGFINAHTHVNQILLRGGPSHGRQLYDWLFNVVYPGQKAMRPEVAVAVRLYCAEAVRSGITTINEEADSAIYPGNIEAAMAVYGEVGVRVVYARMFFDRMDGRIQGYVDALKARSPQVELCSIMEETAVAKDRITALSDQYHGTAGGRISVWPAPATITTVTVEGMRWAQAFARDRAVMWTLHMAESDHDERIIGGSPAEYMECYGLLDERLQVAHCVYFDRKDVRLLHRHNVKVASQVVSNAYLGSGVAPVPEMVERGMAVGIGTDNDNSSDSVNMIGDMKFMAHIHRAVHRDADVLTPEKILEMATIDGARSLGMDHEIGSIETGKRADLILLDLRHPQTTPHHHLAATIVFQAYGNEVDTVLIDGNVVMENRRLSFLPPERELAFLEEAQSRATAILQRANMVANPAWRSL	prometryn		
508 (protein) MQTLSIQHGTLVTMDQYRRVLGDSWVHVQDGRIVALGVHAESVPPPADRVIDARGKVVLPGFINAHTHVNQILLRGGPSHGRQLYDWLFNVVYPGQKAMRPEVAVAVRLYCAEAVRSGITTINEEADSAIYPGNIEAAMAVYGEVGVRVVYARMFFDRMDGRIQGYVDALKARSPQVELCSIMEETAVAKDRITALSDQYHGTAGGRISVWPAPATTTTVTVEGMRWAQAFARDRAVMWTLHMAESDHDERILGGSPAEYMECYGLLDERLQVAHCVYFDRKDVRLLHRHNVKVASQVVSNAYLGSGVAPVPEMVERGMAVGIGTDNNNSSDSVNMIGDMKFMAHIHRAVHRDADVLTPEKILEMATIDGARSLGMDHEIGSIETGKRADLILLDLRHPQTTPHHHLAATIVFQAYGNEVDTVLIDGNVVMENRRLSFLPPERELAFLEEAQSRATAILQRANMVANPAWRSL	propazine		
498 (protein) MQTLSIQHGTLVTMDQYRRVLGDSWVHVQDGRIVALGVHAESVPPPADRVIDARGKVVLPGFINAHTHVNQILLRGGPSHGRQLYDWLFNVVYPGQKAMRPEVAVAVRLYCAEAVRSGITTINEEADSAIYPGNIEAAMAVYGEVGVRVVYARMFFDRMDGRIQGYVDALKARSPQVELCSIMEETAVAKDRITALSDQYHGTAGGRISVWPAPATTTTVTVEGMRWAQAFARDRAVMWTLHMAESDHDERIIGGSPAEYMECYGLLDERLQVAHCVYFDRKDVRLLHRHNVKVASQVVSNAYLGSGVAPVPEMVERGMAVGIGTDNDNSSDSVNMIGDMKFMAHIHRAVHRDADVLTPEKILEMATIDGARSLGMDHEIGSIETGKRADLILLDLRHPQTTPHHHLAATIVFQAYGNEVDTVLIDGNVVMENRRLSFLPPERELAFLEEAQSRATAILQRANMVANPAWRSL	prometryn		
53 (protein) MQTLSIQHGTLVTMDQYRRVLGDSWVHVQDGRIVALGVHAESVPPPADRVIDARGKVVLPGFINAHTHVNQILLRGGPSHGRQFYDWLFNVLYPGQKAMRPEVAVAVRLYCAEAVRSGITTINEDADSAIYPGNIEAAMAVYGEVGVRVVYARMFFDRMDGRIQGYVDALKARSPQVELCSIMEETAVAKDRITALSDQYHGTAGGRISVWPAPATTTTVTVEGMRWAQAFARDRAVMWTLHMAESDHDERIIGWSPAEYMECYGLLDERLQVAHCVYFDRKDVRLLHRHNVKVASQVVSNAYLGSGVAPVPEMVERGMAVGIGTDNDNSCDSVNMIGDMKFMAHIHRAVHRDADVLTPEKILEMATIDGARSLGMDHEIGSIETGKRADLILLDLRHPQTTPHHHLAATIVFQAYGNEVDTVLIDGNVVMENRRLSFLPPERELAFLEEAQSRATAILQRANMVANPAWRSL		atratone	
49 (protein) MQTLSIQHGTLVTMDQYRRVLGDSWVHVQDGRIVALGVHAESVPPPADRVIDARGKVVLPGFINAHTHVNQILLRGGPSHGRQFYDWLFNVLYPGQKAMRPEVAVAVRLYCAEAVRSGITTINEDADSAIYPGNIEAAMAVYGEVGVRVVYARMFFDRMDGRIQGYVDALKARSPQVELCSIMEETAVAKDRITALSDQYHGTAGGRISVWPAPATTTTVTVEGMRWAQAFARDRAVMWTLHMAESDHDERIIGGSPAEYMECYGLLDERLQVAHCVYFDRKDVRLLHRHNVKVASQVVSNAYLGSGVAPVPEMVERGMAVGIGTDNDNSCDSVNMIGDMKFMAHIHRAVHRDADVLTPEKILEMATIDGARSLGMDHEIGSIETGKRADLILLDLRHPQTTPHHHLAATIVFQAYGNEVDTVLIDGNVVMENRRLSFLPPERELAFLEEAQSRATAILQRANMVANPAWRSL		atratone	
57 (protein) MQTLSIQHGTLVTMDQYRRVLGDSWVHVQDGRIVALGVHAESVPPPADRVIDARGKVVLPGFINAHTHVNQILLRGGPSHGRQFYDWLFNVLYPGQKAMRPEVAVAVRLYCAEAVRSGITTINEDADSAIYPGNIEAAMAVYGEVGVRVVYARMFFDRMDGRIQGYVDALKARSPQVELCSIMEETAVAKDRITALSDQYHGTAGGRISVWPAPATTTTVTVEGMRWAQAFARDRAVMWTLHMAESDHDERILGGSPAEYMECYGLLDERLQVAHCVYFDRKDVRLLHRHNVKVASQVVSNAYLGSGVAPVPEMVERGMAVGIGTDNDNSCDSVNMIGDMKFMAHIHRAVHRDADVLTPEKILEMATIDGARSLGMDHEIGSIETGKRADLILLDLRHPQTTPHHHLAATIVFQAYGNEVDTVLIDGNVVMENRRLSFLPPERELAFLEEAQSRATAILQRANMVANPAWRSL		atratone	
